Results published in patent US20080044413A1.

B1: EphA2-BiTE EA2 (VL/VH) × deimmunized anti-CD3 (VH/VL) (bispecific antibody, part only; not given: anti-CD3 scFv, part only)
chain, part: DIKMTQSPSSMYASLGERVTITCKASQDINNYLSWFQQKPGKSPKTLIYRANRLVDGVPSRFSGSGSGQDYSLTISSLEYEDMGIYYCLKYDEFPYTFGGGTKLEIKGGGGSGGGGSGGGGSDVKLVESGGGLVKPGGSLKLSCAASGFTFSSYTMSWVRQTPEKRLEWVATISSGGTYTYYPDSVKGRFTISRDNAKNTLYLQMSSLKSEDTAMYYCTREAIFTYWGQGTLVTVSAGGGGSHHHHHH
B2: EphA2-BiTE EA2 (VH/VL) × deimmunized anti-CD3 (VH/VL) (bispecific antibody, part only; not given: anti-CD3 scFv, part only)
chain, part: DVKLVESGGGLVKPGGSLKLSCAASGFTFSSYTMSWVRQTPEKRLEWVATISSGGTYTYYPDSVKGRFTISRDNAKNTLYLQMSSLKSEDTAMYYCTREAIFTYWGQGTLVTVSAGGGGSGGGGSGGGGSDIKMTQSPSSMYASLGERVTITCKASQDINNYLSWFQQKPGKSPKTLIYRANRLVDGVPSRFSGSGSGQDYSLTISSLEYEDMGIYYCLKYDEFPYTFGGGTKLEIKGGGGSHHHHHH

Biological target: human EphA2 (human) (UniProt P29317)
Test: cell-based or functional assay

| Binder | EC50 of redirected lysis, 51Cr release, A549, NK-depleted PBMC, E:T 10:1, 18 h | EC50 of redirected lysis, 51Cr release, MDA MB231, NK-depleted PBMC, E:T 10:1, 18 h | EC50 of redirected lysis, 51Cr release, MDA MB231, second experiment | EC50 of redirected lysis, 51Cr release, A549 | EC50 of redirected lysis, 51Cr release, A549, second experiment | EC50 of redirected lysis, 51Cr release, MDA MB231 |
| --- | --- | --- | --- | --- | --- | --- |
| B1 | 0.17 µg/mL | 0.0538 µg/mL | 0.086 µg/mL |  |  |  |
| B2 |  |  | 0.0721 µg/mL | 0.184 µg/mL | 0.163 µg/mL | 0.0559 µg/mL |
